Tests used:
[1] = test system: P. aeruginosa P5 (mucoid); experiment: Mouse model of acute lung infection, P. aeruginosa P5; format: in vivo, Pseudomonas aeruginosa
Experimental: (§1) Model of acute lung infection. Female C57/BL6 mice were inoculated intranasally with 25 μl of bacterial culture containing approximately 10^7 CFU of the selected P. aeruginosa strain^36. Antibiotic treatments were administered at either 6 h pre-infection or 1 h post-infection and were administered only once. Pyocins or tobramycin dissolved in PBS were administered via intranasal administration as described above. Two different end-points were used in these experiments. In order to determine a reduction in the bacterial load of the lungs compared to the untreated controls, all mice in the experiment were culled by carbon dioxide asphyxiation at the same time; 4-6 h post infection. To determine if mice could survive infection after pyocin or tobramycin treatment, mice were monitored closely, culled by carbon dioxide asphyxiation when required as determined by a scoring system or culled at the pre-determined 24 h time point. Uninfected mice, treated with pyocins, were used as controls in the first series of experiments in order to ensure no adverse effects from pyocin treatment. These controls were stopped in later experiments in order to reduce the number of animals used, once it was clear that the pyocins were not harmful. For CFU determination, lungs were removed aseptically and kept on ice in 750 μl of PBS until homogenised. Serial 10-fold dilutions of the homogenised lung were plated on Pseudomonas selective agar (20 g peptone, 1.5 g K2HPO4, 1.5 g MgSO4·7H2O, 10 ml glycerol, 15 g agar, 0.025 g Irgasan per litre) and incubated at 37° C. for 24 h and then room temperature for 24 h before the colonies were counted.
(§2) Since strains of P. aeruginosa are phenotypically diverse, we tested the efficacy of the pyocins against three additional isolates: P. aeruginosa P17 and P. aeruginosa P5 (mucoid), both from cystic fibrosis patients and P. aeruginosa E2, an environmental isolate. Pyocin S2 was not active against P. aeruginosa P5 or P. aeruginosa E2 in vitro therefore was not used to treat these strains in vivo and similarly pyocin L1 was not used against P. aeruginosa P17. […] Lung homogenates from P. aeruginosa E2-infected AP41-treated mice contained high levels of viable bacteria, reduced only 10-fold relative to control mice (Table 1). […] Thus, pyocins show strong efficacy against diverse strains of P. aeruginosa with pyocin S5 treatment displaying the largest effect on reducing bacterial load.

[2] = test system: P. aeruginosa P8; experiment: Repeated pyocin exposure followed by P. aeruginosa P8 lung infection and pyocin S5 treatment; format: in vivo, Pseudomonas aeruginosa; conditions: for survival: infected at thirteen weeks, 75 μg intranasal 1 h post-infection
Experimental: Repeated pyocin exposure. Pyocin S5 or PBS was given three times, two weeks apart with administration either via intranasal route (referred to as I.N. groups) or intraperitoneal route (referred to as I.P. groups). For I.N. administration the groups were: PBS and pyocin S5 (75 μg; 25 μl at 3 mg ml^−1). For I.P. administration the group was pyocin S5 (75 μg; 100 μl at 750 μg ml^−1). The PBS I.N. group served as the control group for the I.P. group. Thirteen weeks after the first exposure mice (n=5) were infected intranasally with P. aeruginosa P8 (I.N group infected with 1.4×10^7 CFU, I.P group infected with 5.0×10^6 CFU) and treated intranasally one hour post-infection with 75 μg of pyocin S5 or PBS, as described previously.
To ascertain if repeated exposure to pyocins gives rise to an antibody response that is detrimental to treatment, mice were repeatedly exposed to pyocin S5 to induce an antibody response and the efficacy of pyocin treatment was determined as before after infection with P. aeruginosa P8. Pyocin S5 was administered three times, with two weeks between each administration, either via the intranasal route (I.N.) or the intraperitoneal (I.P.) route. Thirteen weeks after the first treatment, mice (n=5) were infected intranasally with P. aeruginosa P8 (I.N. group infected with 1.4×10^7 CFU, I.P. group infected with 5.0×10^6 CFU) and treated intranasally 1 h post-infection with 75 μg of pyocin S5 or PBS. A control group administered only PBS intranasally prior to infection was also included. […] The levels of pyocin-S5 specific IgG and IgA were analysed for each mouse.

[3] = test system: P. aeruginosa E2; experiment: Mouse model of acute lung infection, P. aeruginosa E2; format: in vivo, Pseudomonas aeruginosa
Experimental: as §1, §2

[4] = test system: P8AP41T; experiment: Pyocin sensitivity in vitro (spot tests) of strain P8AP41T; format: cell-based, Pseudomonas aeruginosa; conditions: spot tests, FIG. 3a
Experimental: Pyocin sensitivity assays: overlay spot plate method. Soft agar overlay spot plates were performed using the method of ^35. 150 μl of test strain culture at OD600 nm=0.6 was added to 6 ml of 0.8% soft agar and poured over an LB agar plate. 5 μl of bacteriocin, lung homogenate or blood at varying concentrations was spotted onto the plates and incubated for 24 h at 37° C.
In order to determine if pyocin tolerance or resistance was acquired upon pyocin treatment in vivo, viable bacteria recovered from mice that survived infection to the 24 h end-point, in all experiments discussed in this work, were tested for pyocin susceptibility. From these experiments no pyocin resistant colonies were isolated. […] Importantly, sensitivity to pyocins S5 and L1 were unaffected in vitro in this pyocin AP41-tolerant strain (FIG. 3a) and this was also shown to be the case in vivo when mice were infected with P8AP41T.

[5] = test system: collection of diverse environmental and clinical isolates; experiment: Activity against a collection of diverse environmental and clinical isolates; format: cell-based, Pseudomonas aeruginosa

B1: Pyocin S5: S-type pyocin, SEQ ID NO: 13; binds FptA, pore-forming effector (protein, listed as Pseudomonas aeruginosa)
chain: MSNDNEVPGSMVIVAQGPDDQYAYEVPPIDSAAVAGNMFGDLIQREIYLQKNIYYPVRSIFEQGTKEKKEINKKVSDQVDGLLKQITQGKREATRQERVDVMSAVLHKMESDLEGYKKTFTKGPFIDYEKQSSLSIYEAWVKIWEKNSWEERKKYPFQQLVRDELERAVAYYKQDSLSEAVKVLRQELNKQKALKEKEDLSQLERDYRTRKANLEMKVQSELDQAGSALPPLVSPTPEQWLERATRLVTQAIADKKQLQTTNNTLIKNSPTPLEKQKAIYNGELLVDEIASLQARLVKLNAETTRRRTEAERKAAEEQALQDAIKFTADFYKEVTEKFGARTSEMARQLAEGARGKNIRSSAEAIKSFEKHKDALNKKLSLKDRQAIAKAFDSLDKQMMAKSLEKFSKGFGVVGKAIDAASLYQEFKISTETGDWKPFFVKIETLAAGAAASWLVGIAFATATATPIGILGFALVMAVTGAMIDEDLLEKANNLVISI
[1]; pyocin 3 mg ml^−1, endpoint 24 h, infected controls culled at 4.5 h
  survival / protection: survived until the 24 h endpoint
[1]; pyocin 3 mg ml^−1, treated mice survived to 24 h, no treatment 1.7 × 10^5 CFU/lung
  bacterial count in lung, P5: No colonies
[2]; I.N. pre-exposure 75 μg three times two weeks apart
  survival: survived to the 24 h time-point
[2]; I.N. pre-exposure 75 μg three times, 75 μg intranasal 1 h post-infection (FIG. 8a)
  bacterial load of the lungs: no viable bacteria were recovered
[2]; I.P. pre-exposure 75 μg three times two weeks apart
  survival: all survived to the 24 h time-point
[2]; I.P. pre-exposure 75 μg three times, 75 μg intranasal 1 h post-infection (FIG. 8c)
  bacterial load of the lungs: no viable bacteria were recovered
[3]; pyocin 3 mg ml^−1, endpoint 24 h, infected controls culled at 5.5 h
  survival / protection: survived until the 24 h endpoint
[3]; pyocin 3 mg ml^−1, treated mice survived to 24 h, no treatment 1.5 × 10^5 CFU/lung
  bacterial count in lung, E2: No colonies
[4]
  sensitivity of the pyocin AP41-tolerant strain in vitro: unaffected
[5]
  strains against which active: 87%

— patent publication US12162911B2, “Pulmonary administration of pyocins for treating bacterial respiratory infections” (priority 2014, dated 2024)
